B1: monoclonal antibody clone NBH313 #46 9H11-1D9-2B6 (antibody, V domains shown)
VH: EVQLVESGGGLVQPKGSLKLSCAASGFTFNIYTMNWVRQAPGKGLEWVARIRSKSENYATYYADSVKDRFTISRDDSQSILYLQMNNLKTEDTAIYYCVRQGIYYDYYGAMDYWGQGTSVTVSS
VL: NIMMTQSPSSLAVSAGEKATMSCKSSQSLLYSSNQMNYLAWYQQKPGQSPKLLIYWASTRESDVPDRFTGSGSGTDFTLTISSVQTEDLAVYYCHQYFSSRTFGGGTKLEIKR
notes: Mouse (Balb/C) hybridoma monoclonal antibody; also called PRO-C9 antibody; the mAb
B2: standard peptide QRAFNKGPDP (PRO-C9 target sequence, C-terminus of type IX collagen alpha-1 chain) (peptide)
peptide: QRAFNKGPDP
notes: Synthetic peptide from Genscript with a free C-terminus; also called selection peptide

Assay [1] has as its target T1, truncated peptide QRAFNKGPD
T1 construct: also called truncated selection peptide
T1 peptide: QRAFNKGPD
Kind of assay: competitive CLIA, signal inhibition by two-fold diluted peptide. The protocol:
(§1) The development of the competitive chemiluminescence immunoassay (CLIA) included several preliminary optimizing experiments where reagents, concentrations, incubation-time and -temperature were analysed by several tests. The PRO-C9 competitive ELISA procedure was as follows: A 96-well streptavidin-coated white microplate (Greiner Bio-One, Kremsminster, Austria) was coated with 5 ng/mL biotinylated synthetic peptide (Biotin-[…] SEQ ID No. 18) dissolved in assay buffer (10 mM phosphate buffered saline (PBS), 1% bovine serum albumin, 0.1% Tween-20, 0.36% Bronidox, 4 g/L NaCl, adjusted to pH 7.4 at 20° C.) and incubated for 30 min at 20° C. with constant shaking (300 rpm) in darkness.
(§2) Next, 20 μL/well of standard peptide (100 ng/mL) and samples were added to the appropriate wells, followed by the addition of 100 μL/well of HRP-labelled antibody diluted in assay buffer to the concertation of 100 ng/mL and incubated for 20 h at 4° C. with constant shaking (300 rpm) in darkness. After each incubation step, wells were washed with standard washing buffer (20 mM Tris, 50 mM NaCl, pH 7.2). […] The relative light units were measured at all wavelengths within 5 min on a microplate luminometer reader (SpectraMax M5, Molecular Devices, CA, USA).
(§3) Two-fold dilutions of four human serum samples were used to assess linearity. Linearity was calculated as a percentage of recovery of the undiluted sample. […]

Assay [2] addresses T2, elongated peptide QRAFNKGPDPG
T2 construct: also called elongated selection peptide
T2 peptide: QRAFNKGPDPG
The assay is described as above. The procedure: as §1, §2, §3

Assay [3] has as its target T3, non-sense coating and standard peptide DQAAGGLRQH
T3 construct: also called non-sense peptide; non-sense standard peptide
T3 peptide: DQAAGGLRQH
Kind of assay: competitive CLIA, non-sense peptide tested as free standard and as coater. The procedure:
as §1, §2, §3

The target of assay [4] is B2. Kind of assay: ELISA screening of hybridoma clones. The procedure:
An indirect ELISA performed on streptavidin-coated plates was used for the screening of supernatant reactivity. Biotin-[…] was used as screening peptide, while the standard peptide […] was used to further test the specificity of the clones. Supernatant was collected from the hybridoma cells and purified using HiTrap affinity columns (GEHealthcare Life Science, Little Chalfront, Buckinghamshire, UK) according to manufacturer instructions and antibody isotype was determined using Rapid ELISA Mouse monoclonal antibody Isotyping Kit (Invitrogen, Carlsbad, CA, USA) following the manufacturer's protocol.
(In general: In an ELISA, binding on a coated surface is turned into a signal by an enzyme label.)

Assay [5] concerns the target B1. Kind of assay: competitive CLIA: free standard peptide against coated Biotin-… for HRP-labelled antibody. The procedure: Next, 20 μL/well of standard peptide (100 ng/mL) and samples were added to the appropriate wells, followed by the addition of 100 μL/well of HRP-labelled antibody diluted in assay buffer to the concertation of 100 ng/mL and incubated for 20 h at 4° C. with constant shaking (300 rpm) in darkness. After each incubation step, wells were washed with standard washing buffer (20 mM Tris, 50 mM NaCl, pH 7.2). The chemiluminescence substrate (Roche, BM Chemiluminescence ELISA substrate (POD), Basel, Switzerland) working solutions were mixed 15 min before use and 100 μL/well were added to plate and incubated for 3 min at 20° C. with constant shaking (300 rpm) in darkness. The relative light units were measured at all wavelengths within 5 min on a microplate luminometer reader (SpectraMax M5, Molecular Devices, CA, USA).
Accuracy of the assay was measured in healthy human serum samples spiked with standard peptide and a serum sample with a known high PRO-C9 concentration and calculated as the percentage recovery of the measured value and the expected concentration of the peptide or the serum sample with high PRO-C9 plus the concentration of the analyte in serum. […] Recovery percentage was calculated with the normal serum sample as reference. […] The interference was calculated as the percentage recovery of the analyte in non-spiked serum. […]

With B1, the binding result in assay [1] is recorded as “no binding”; in assay [2], “no binding”; in assay [3], “no binding”; in assay [4], “binds”.

Take B2: the IC50 (commonly the concentration that inhibits the measured activity by half) in assay [5] turned out to be 3.62 ng/mL.
